# Non-standard residues stand in square brackets, D forms with d. Primed or numbered codes have the meaning given here. No end group written: not given here. PEG12(3) = not defined here
# Legend:
# [1] = molecular target: T1, Apelin Receptor (APJ) stably overexpressed in CHO-K1 AGTRL1 Gi cells (human, UniProt P35414 1-380); assay: cell-based or functional assay
# T1 sequence (looked up): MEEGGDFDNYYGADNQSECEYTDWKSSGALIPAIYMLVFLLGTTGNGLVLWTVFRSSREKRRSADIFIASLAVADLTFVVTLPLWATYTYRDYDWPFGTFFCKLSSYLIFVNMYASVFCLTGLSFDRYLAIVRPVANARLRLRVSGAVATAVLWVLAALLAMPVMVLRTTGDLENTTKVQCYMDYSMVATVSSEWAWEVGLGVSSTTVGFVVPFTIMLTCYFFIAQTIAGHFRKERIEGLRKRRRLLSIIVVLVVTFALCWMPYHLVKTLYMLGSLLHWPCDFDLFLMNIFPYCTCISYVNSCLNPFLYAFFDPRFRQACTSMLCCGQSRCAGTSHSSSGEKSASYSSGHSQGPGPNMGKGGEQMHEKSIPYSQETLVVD
# [2] = molecular target: ProLink tagged human APJ (Apelin Receptor) in CHO-K1 AGTRL1 β-Arrestin cells (human, UniProt P35414 1-380); assay: cell-based or functional assay
Binder,"cAMP levels, Percent of Pyr-Apelin-13 Control Activity (10 µM peptide, 10 µM forskolin) [1]","β-Arrestin recruitment, Percent of Apelin-13 Control Activity (10 µM peptide) [2]"
RREMVYQCLEG[dA] [SEQ ID NO 26],29 % of Pyr-Apelin-13 control,0 % of Apelin-13 control
RRMGYQCLEG[dA] [SEQ ID NO 28],3 % of Pyr-Apelin-13 control,-1 % of Apelin-13 control
RRMMGMVAQCLEG[dA] [SEQ ID NO 30],31 % of Pyr-Apelin-13 control,-1 % of Apelin-13 control
RRLLGLVFQSLCG[dA] [SEQ ID NO 33],27 % of Pyr-Apelin-13 control,9 % of Apelin-13 control
RREMVYQCLCG[dA] (cysteine pairing not given here) [SEQ ID NO 25],3 % of Pyr-Apelin-13 control,-1 % of Apelin-13 control
RRLLGLVEQSLCG[dA] [SEQ ID NO 40],19 % of Pyr-Apelin-13 control,0 % of Apelin-13 control
RRMVFQCLEG[dA] [SEQ ID NO 23],-4 % of Pyr-Apelin-13 control,0 % of Apelin-13 control
RRMMGMVYQCLEG[dA] [SEQ ID NO 29],21 % of Pyr-Apelin-13 control,0 % of Apelin-13 control
RRMVYQCLCG[dA] (cysteine pairing not given here) [SEQ ID NO 22],62 % of Pyr-Apelin-13 control,0 % of Apelin-13 control
MMGMV [SEQ ID NO 44],5 % of Pyr-Apelin-13 control,0 % of Apelin-13 control
RRMMGMVEQSLCG[dA] [SEQ ID NO 38],12 % of Pyr-Apelin-13 control,0 % of Apelin-13 control
RRMAYQCLEG[dA] [SEQ ID NO 27],9 % of Pyr-Apelin-13 control,-1 % of Apelin-13 control
RRMMGMVFQCLCG[dA] (cysteine pairing not given here) [SEQ ID NO 8],64 % of Pyr-Apelin-13 control,17 % of Apelin-13 control
MMGMVFQ [SEQ ID NO 46],11 % of Pyr-Apelin-13 control,0 % of Apelin-13 control
RXLLGLVFQSLCGA ((AIB) aminoisobutyric acid at position 2; (dA) D-alanine at position 14) [SEQ ID NO 35],8 % of Pyr-Apelin-13 control,17 % of Apelin-13 control
RRMMGMVYQCLCG[dA] (cysteine pairing not given here) [SEQ ID NO 10],70 % of Pyr-Apelin-13 control,3 % of Apelin-13 control
RRMEVYQCLEG[dA] [SEQ ID NO 32],4 % of Pyr-Apelin-13 control,0 % of Apelin-13 control
RRMMGMVFQSLEG[dA] [SEQ ID NO 39],-13 % of Pyr-Apelin-13 control,0 % of Apelin-13 control
MMGMVFQS [SEQ ID NO 47],-6 % of Pyr-Apelin-13 control,1 % of Apelin-13 control
MMGMVF [SEQ ID NO 45],10 % of Pyr-Apelin-13 control,0 % of Apelin-13 control
RRMVYQCLEG[dA] [SEQ ID NO 24],16 % of Pyr-Apelin-13 control,-1 % of Apelin-13 control
RRMVFQCLCG[dA] (cysteine pairing not given here) [SEQ ID NO 19],27 % of Pyr-Apelin-13 control,1 % of Apelin-13 control
KRRMMGMVFQCLCGA ((PEG12) on the N-terminal K (position 1); (dA) D-alanine at position 15) [SEQ ID NO 20],37 % of Pyr-Apelin-13 control,1 % of Apelin-13 control
RXMMGMVFQSLCGA ((AIB) aminoisobutyric acid at position 2; (dA) D-alanine at position 14) [SEQ ID NO 34],61 % of Pyr-Apelin-13 control,8 % of Apelin-13 control
RRMMGMVFQCLCG[dA]K(PEG12(3)) (cysteine pairing not given here) [SEQ ID NO 21],34 % of Pyr-Apelin-13 control,1 % of Apelin-13 control
"RRXXGXVFQCLCGA ((Nle) norleucine at positions 3, 4 and 6; (dA) D-alanine at position 14) [SEQ ID NO 18]",30 % of Pyr-Apelin-13 control,1 % of Apelin-13 control
RRMEVYQCLCG[dA] (cysteine pairing not given here) [SEQ ID NO 31],2 % of Pyr-Apelin-13 control,0 % of Apelin-13 control
RRLLGLVFQSLEG[dA] [SEQ ID NO 41],15 % of Pyr-Apelin-13 control,0 % of Apelin-13 control
